Positions count from the first letter of the chain named. Names may count otherwise. “Also recorded” adds a separate entry of the source.
B1: TAT-GIV-CT-WT: Recombinant cell-permeable fusion of TAT-PTD, His and HA tags, linker and human GIV C-terminus (aa 1660-1870), wild type; SEQ ID NO: 2 (protein)
chain: MRGSHHHHHHGMASMTGGQQMGRDLYDDDDKDRWGSKLGYGRKKRRQRRRGGSTMSGYPYDVPDYAGSMGGSGHSGETLESRHHKIKTGSPGSEVVTLQQFLEESNKLTSVQIKSSSQENLLDEVMKSLSVSSDFLGKDKPVSCGLARSVSGKTPGDFYDRRTTKPEFLRPGPRKTEDTYFISSAGKPTPGTQGKIKLVKESSLSRQSKDSNPYATLPRASSVISTAEGTTRRTSIHDFLTKDSRLPISVDSPPAAADSNTTAASNVDKVQESRNSKSRSREQQSS
B2: TAT-GIV-CT-FA: GEF-deficient F1685A mutant of the TAT-GIV-CT peptide, dominant-negative; SEQ ID NO: 3 (protein)
chain: B1 chain with F101A

Experiments:
MDA MB231 cells = assay: Transwell tumor cell invasion assay through basement membrane extract; assay type: cell-based; settings: compared to TAT-control peptides; 50 nM EGF
Protocol: Briefly, after a serum starvation overnight, MDA MB231 cells were first transduced with TAT peptides for 30 min as above. Transduced cells were trypsinized, counted, and placed in a Corning transwell permeable support coated with Cultrex Basement Membrane Extract (7×10^4 cells per well). Media without FBS but containing EGF ligand (50 nM) was placed within the bottom chamber of each well to trigger directional 3D invasion. As done in the 2D migration assays, transduction with TAT peptides was repeated one more time ˜10-12 h into the assay (total of two times). At 22-24 h, a Q-tip was used to meticulously remove all cells from the surface of the permeable membrane facing the upper chamber. […] To quantify cell invasion (expressed as number of invasive cells/high power field) ˜10-12 random fields per membrane insert per condition were analyzed for number of crystal violet stained cells. […]
Invasion assays were performed using Corning® Transwell plates according to the manufacturer's protocol. Transduced cells were trypsinized, counted and placed in a Corning transwell permeable support coated with Cultrex® Basement Membrane Extract (7×10^4 cells/well). […] Cell invasion (expressed as number of invasive cells/high power field) was quantified by analyzing ˜10-12 random fields/membrane insert/condition for number of crystal violet stained cells.

[1] = tested on: GIV, IRS1 and Akt phosphorylation; assay: Metabolic insulin signaling in L6 cells by immunoblotting; assay type: cell-based, rat; settings: TAT-transduced L6 myotubes; for phosphorylation of Akt in response to insulin: pS473; for phosphorylation of IRS1 in response to insulin: pY632-IRS1
Protocol: Transfection was carried out with GeneJuice (Novagen) for DNA plasmids or Oligofectamine (Invitrogen) for siRNA oligos according to manufacturer's protocols. Silencer negative Control scrambled (Scr) siRNA used as control was purchased from Ambion and the previously validated (Enomoto et al., 2005) GIV siRNA sequence used was custom-ordered from Dharmacon. For TAT-construct transduction, cells were incubated with 300-800 nM of the TAT-proteins for 30 min at 37° C. prior to three washes with PBS and addition of fresh growth media. For assays involving insulin (Novagen) stimulation of TAT-treated cells, such stimulation was carried out 90 min after transduction.
Unless otherwise indicated, serum starvation of cells for use in experiments involving insulin stimulation was carried out by growing cells overnight in the presence of no serum (i.e., 0% FBS) in the case of Cos7 and L6 cells, or in the presence of 0.2% FBS in the case of HeLa cells. To induce IR, cells were pre-treated with Sodium Palmitate (PA; Sigma-Aldrich) (0.5 mM, stock solution at 5 mM/5% FFA-free BSA in ethanol) or vehicle control (5% FFA-free BSA in ethanol) for 16 h. To reverse IR with TZDs, cells were treated with 50 μM Pioglitazone (Pio) (Sigma-Aldrich) or DMSO (vehicle control) for 18 h prior to stimulation with 100 nM insulin. Treatment with PKCθ pseudo-substrate inhibitor (Santa Cruz Biotechnologies) was performed at 10 μM for 16 h.
Protein samples for immunoblotting were run on SDS/PAGE gels and transferred onto PVDF membranes (Millipore). Membranes were blocked with PBS containing 5% non-fat milk (or with 5% BSA when probing for phosphorylated proteins) before incubation with primary antibodies. GIV was detected using rabbit anti-GIV coiled-coil (Millipore) (1:500); GIV-CT (Santa Cruz Biotechnologies) (1:500); phospho-Tyr1764-GIV (1:500) and phospho-Ser1689-GIV (21st Century Biochemicals) (1:250) antibodies. Other antibodies used in this work include rabbit polyclonal antibodies against Gαi3 (1:333), pan-GP (1:250) and phospho-IRS1 (1:500) from Santa Cruz Biotechnologies; and phospho-Akt (1:250); total Akt (1:250); phospho-ERK (1:250); phospho-AS160 (1:250); total InsRβ (1:500) and total IRS1 (1:500) from Cell signaling. Mouse monoclonal Abs against phospho-InsRβ (1:250), His (1:1000), β-tubulin (1:1000), GFP (1:500) from Santa Cruz Biotechnologies, and control IgG (Bio-Rad Laboratories) were commercially obtained. Goat anti-rabbit and goat anti-mouse Alexa Fluor 680 or IRDye 800 F(ab′)2 secondary antibodies were purchased from Li-Cor Biosciences. Images were processed with ImageJ software (NIH) and assembled as figure panels using Photoshop and Illustrator software (Adobe).

HeLa cells = assay: Scratch-wound 2D cell migration assay; assay type: cell-based; settings: lysates 6 h post-wounding
[2] = tested on: 6-mm punch biopsy dermal wounds; assay: Dermal wound healing in mice, topical TAT proteins; assay type: in vivo; settings: for wound healing: topical 15 μg (~500 pmol) every 24 h for 8 d, vs TAT control
Protocol: Under general anesthesia, two 6-mm diameter punch biopsy wounds were created on the shaved dorsal surface of 8 wk old female C56BL/6 wild-type mice under sterile conditions. Wounds were then treated with 15 μg (˜500 pmol) of TAT proteins every 24 h for 8 d after injury, and photographed every 48 h over that period, and wound area was manually traced by placing a transparent film over the wound and tracing the outline with a permanent marker. To measure the wound area, the edges of the dermis were determined as the wound edge. […] The tracing was then scanned and measured using an image analysis program (NIH Image J Software). Five mice, each with 2 wounds (a total of 10 wounds) were studied in each treatment arm, and their rate of closure was analyzed. These studies were carried out in a blinded manner such that aliquots of purified TAT proteins were prepared and color coded before their arrival at the animal facility. Consequently, the personnel who performed dermal punch biopsies, daily treatment with TAT proteins, photography and measurement of wound area was blinded to the identity of the compound. The study protocol (FIG. 4B) included standard wound care as per IACUC guidelines.

Molecule	invasion through basement membrane matrix in response to EGF gradient (MDA MB231 cells)	phosphorylation of Akt in response to insulin [1]	phosphorylation of IRS1 in response to insulin [1]	Akt activation during 2D cell migration (HeLa cells)	EGFR autophosphorylation during 2D cell migration (HeLa cells)	Akt activation during 2D cell migration (HeLa cells; listed as WT)	EGFR autophosphorylation during 2D cell migration (HeLa cells; listed as WT)	rate of wound healing relative to TAT-treated controls ([2]; topical 500 pmol daily)	time of wound healing relative to TAT-treated controls ([2]; topical 500 pmol daily)	wound healing [2]	wound healing ([2]; listed as FA)
B1	significantly enhanced	enhancement	enhancement	enhances	enhances	enhanced	enhanced	~2 × the rate	a day earlier	accelerated wound healing; also recorded: accelerates	
B2	virtually abolished	suppressed	suppressed	not	not						delayed wound healing; also recorded: retards
